Measurements from patent US20050260627A1, “Mannosidases and methods for using same” (University of Victoria Innovation and Development …, priority 1999, published 2005).

Legend:
[1] = test system: A. nidulans α-1,2-mannosidase IC; assay: Effect of EDTA, calcium and deoxymannojirimycin on enzyme activity; format: biochemical, Aspergillus nidulans; conditions: for effect of addition on enzyme activity: added to purified α-1,2-mannosidase IC
Procedure: (§1) FIG. 8: Biochemical characterization of purified A. nidulans α-1,2-mannosidase IB (A) and α-1,2-mannosidase IC (B) enzymes. Enzyme activity was assayed by digestion of the synthetic substrate Man-α1,2-Man-OCH3 at 37 °C for 3 hours. Released mannose was detected using a colorimetric glucose oxidase/horseradish peroxidase assay (see Materials and Methods) and measuring absorbance at […].
(§2) The α-mannosidase IB and IC expression vectors were introduced into the genome of A. nidulans strain T580 (ura-) by cotransformation and complementation with the pJR15 vector, which contained the selectable ura marker. It has been shown that when two plasmids are used simultaneously in the transformation of fungal protoplasts (cotransformation), as many as 60% of transformed protoplasts will integrate both of the plasmids into the genome (Wernars et al. 1987, Mol. Gen. Genet., 209: 71-77). Protoplasts were prepared according to the method of Fincham (1989, Microbiol. Rev., 53: 148-170), using Sigma Lysing Enzyme for cell wall digestion. Protoplasts of strain T580 (uridine auxotroph) were co-transformed with 1 μg of the selectable marker pJR15, which converts transformed cells to uridine prototrophy, and with 1 μg of either ANIBSEC or ANICSEC. Transformants were initially screened for integration of […] by selection on minimal media, and positive transformants were then transferred to individual complete media plates. Transformants were selected for prototrophy on uridine deficient minimal media and transferred to complete media plates. To confirm secretion of active recombinant α-1,2-mannosidase IB or IC into the culture media of putative transformants, specific activity assays were performed. After 60-65 hours of incubation, aliquots of culture media were assayed for α-1,2-mannosidase activity and compared to the non-transformed T580 strain. Total culture filtrate protein was precipitated and resuspended in assay buffer. Mannosidase assays were performed using the disaccharide Man-α-1,2-Man-OCH3 as a substrate in a coupled enzyme assay as described earlier (Scaman et al. 1996, Glycobiol., 6: 265-270), with some modifications. Digestion of the substrate was performed in a 30 μl final volume containing 10 mM sodium acetate/acetic acid buffer (pH 5.0) and 3 μl 100 mM disaccharide Man-α-1,2-Man-OCH3 incubated at 37° C. for 3 hours. Released mannose was detected by addition of 30 μl 1.25M Tris-HCl (pH7.6) and 240 μl of developing solution, containing glucose oxidase (55 U/ml), horseradish peroxidase (1 U/ml) and o-dianisidine dihydrochloride (70 μg/ml) followed by incubation at 37° C. for 3 hours. Absorbance measurements at 450 nm were used to determine final color change. A standard curve of free mannose concentrations was determined for comparison.

[2] = test system: A. nidulans α-1,2-mannosidase IB; assay: as above; format: biochemical, Aspergillus nidulans; conditions: for effect of addition on enzyme activity: added to purified α-1,2-mannosidase IB
Procedure: as §1, §2

[3] = α-1,2-mannosidase specific activity assay of secreted recombinant enzymes (coupled enzyme assay); format: biochemical; conditions: purified enzyme; for optimal pH for highest activity: FIG. 8; for specific activity: non-limiting amounts of Man-α-1,2-Man-OCH3, 1 U = 1 nmol mannose per hour
Procedure: as §1
as §2, with “Digestion of the substrate was performed in a 30 μl final volume containing 10 mM sodium acetate/acetic acid buffer (pH 5.0) and 3 μl 100 mM disaccharide Man-α-1,2-Man-OCH3 incubated at 37° C. for 3 hours.” left out, “comparison. […] Protein concentrations were determined by the Bradford method (Bradford 1976, Anal. Biochem., 72: 248-254) and comparison to a bovine serum albumin (BSA) standard curve. […]” for “comparison.”

[4] = Digestion of Man9GlcNAc2, cleavage products by MALDI-TOF mass spectrometry; format: biochemical; conditions: for cleavage of Man9GlcNAc2 (substrate specificity): non-limiting conditions, about 100 ng enzyme, 10 pmol Man9GlcNAc2
Procedure: FIG. 9: Partial digestion of Man9GlcNAc2 (M9) with A. nidulans α-1,2-mannosidase IB (A) and A. nidulans α-1,2-mannosidase IC (B) by MALDI-TOF mass spectrometry. Peaks represent parent molecules ionized with sodium (M+Na+). Several different digestion products are produced in each reaction, including Man8GlcNAc2 (M8), Man7GlcNAc2 (M7), Man6GlcNAc2 (M6) and Man5GlcNAc2 (M5).
The substrate specificity of the α-1,2-mannosidase IB and IC from A. nidulans was determined by analyzing the cleavage products of Man9GlcNAc2 by MALDI-TOF mass spectrometry. Approximately 100 ng of either α-1,2-mannosidase IB or IC protein was used to digest 10 pmol of Man9GlcNAc2 (Sigma) in a final volume of 10 μl. Digestion products were analyzed by matrix assisted laser desorption ionization time of flight mass spectrometry (MALDI-TOF-MS) using a Voyager biospectrometry workstation (Applied Biosystems, Foster City Calif.). Samples were mixed in a 1:1 ratio with the matrix (10 mg/ml 2,5-dihydroxybenzoic acid; 50% acetonitrile) and 1 μl was loaded onto a sample plate for analysis. […] Accelerating voltage was 20000V and the grid voltage was set at 94%. Data were analyzed using Data Explorer software (Applied Biosystems, Foster City Calif.). […] This supports the classification of both the α-1,2-mannosidase IB and IC in subgroup 2.
The rate at which various intermediates were produced during the digestion of Man9GlcNAc2 to Man5GlcNAc2 was determined by analyzing the cleavage products during limited time-course experiments (FIG. 9). […] This led to the accumulation of Man7GlcNAc2 and Man6GlcNAc2 intermediates during the progress of the digestion, which were eventually converted to Man5GlcNAc2.

[5] = limited time-course experiments, FIG. 9

Molecule	effect of addition on enzyme activity [1]	effect of addition on enzyme activity [2]	optimal pH for highest activity [3]	specific activity [3]	rate of digestion of Man9GlcNAc2 to intermediates [4, 5]	cleavage of Man9GlcNAc2 (substrate specificity) [4]	also measured
O=C(O)CN(CCN(CC(=O)O)CC(=O)O)CC(=O)O [EDTA]	significantly reduced enzyme activity	significantly reduced enzyme activity					
[Ca+2] [calcium]							effect of addition on EDTA-reduced enzyme activity ([1]; added after EDTA, α-1,2-mannosidase IC): restored; effect of addition on EDTA-reduced enzyme activity ([2]; added after EDTA, α-1,2-mannosidase IB): restored
OC[C@H]1NC[C@@H](O)[C@@H](O)[C@@H]1O [deoxymannojirimycin]	significant decrease in activity	significant decrease in activity					
α-1,2-mannosidase IB: Class I α-1,2-mannosidase from A. nidulans (mnsIB, SEQ ID NO: 6), expressed from vector ANIBSEC (protein, Aspergillus nidulans) MRTLLALAAFAGFAAARVPATAITRPVMRSDSRADAVKEAFSHAWDGTTNTAFPHDELHPISNGTGDSRNHWGASAVDALSTAIMMRNATIVNQILDHIAAVDTSKTNAMVSLFETTIRTLAGMISGTDLLKGPAAGLVDDSRVDVLLEQSQNLAEVLKFAFDTPSGVPTNMINITSGGNDGATTNGLAVTGTLVLEWTRLSDLTGNDETARLSQRAEDTLLHPEPAQTEPFPGLIGSAVNIADGKLANGHISWNGGADSTTETLIKMTVTDPERFGLTRDRWVAAAESSINHLASHPSTRPDVTFLATTNEEHQLGLTSQHLTCFDGGSFLLGGTLLDRQDFVDFGLDLVAGCHETTNSTLTGIGPEQFSWDPNGVPDSQKELFERAGFTINSGQTILRPEVIESFTTAWRVTGDGTTLEWVWNAFTNINKTCRTATGFAGLENVNAANGGGRIDNQESFMFAEVLKTSFLTFAPEDDWQVQKGSGNTFVTNTEAHPFKVTTPQ			5.0	7.52 U/μg	rapidly degraded Man9GlcNAc2 to Man7GlcNAc2	cleaved Man9GlcNAc2 completely and efficiently to a Man5GlcNAc2 structure	
α-1,2-mannosidase IC: Class I α-1,2-mannosidase from A. nidulans (mnsIC, SEQ ID NO: 18), expressed from vector ANICSEC (protein, Aspergillus nidulans) MPRRWSSLISITAIFLVLFFLLHRNTDTPRAANRATNGPANGFARQQSICPSTPPQPPYNRTSTGGFNWGEIPVRYPVSDFIPLSTNSPATLPRIQRSSFPLQSSITKSRQAAVKGAFQRAWTSYTTHAWKADEVRPITAGSRNNFGGWGATLVDNLDTLLIMGLDEEFAAAVDALADIEFSPHSSPSSSQSTINIFETTIRYLGGLLAAYDLTGCRETRLLDKAIQLGEMIYTSFDTENRMPVPRWNLHKAGNGEPQRAAVQGVLAELASSSLEFTRLSQLTGDMRYFDAASRITDLLDSQAGHTRIPGLWPVSVNLQKGDLTRGSTFSFGGMADSAYEYLGKTYRLLGGVGKGPQYERLARNALDAGIRHLLFRPMTPDHADILLPGVAHATSSSVGLEPRTEHLACFVGGMYALAGKLFSNQTYLDTGRKLTDGCIWYYDNSPLGIMPEMFTVPACPSVAECPWDETRGGIYTYVRDGHYFLRPEAMESIFYMWRITGDEKYREAAWRMFTAIEAVTKTEFGNAAVRDVMVEEGNVKREDSMESFWMAETLKYLYLIFGETDLVSLDDWVFNTEAHPLRGAGS			5.0	4.56 U/µg	rapidly degraded Man9GlcNAc2 to Man7GlcNAc2	cleaved Man9GlcNAc2 completely and efficiently to a Man5GlcNAc2 structure	rate of conversion of Man7GlcNAc2 and Man6GlcNAc2 intermediates to Man5GlcNAc2 [4, 5]: more rapidly than the α-1,2-mannosidase IB enzyme
